From US9637764B2, “Methods of producing 7-carbon chemicals via carbon chain elongation associated with cyclohexane carboxylate synthesis” (INVISTA North America S.á r.l., priority 2012, dated 2017)

Columns and labels:
Format in all cases: biochemical
[1] = Carboxylate reductase activity assay, pimelate to pimelate semialdehyde (NADPH consumption, absorbance at 340 nm); details: purified enzyme enhanced by the gene product of sfp, 2 mM pimelate, 1 mM ATP, 1 mM NADPH, pH=7.5, room temperature, 20 min; against the empty vector control; FIG. 10
Experimental: A sequence encoding a HIS-tag was added to the genes from Segniliparus rugosus and Segniliparus rotundus that encode the carboxylate reductases of SEQ ID NOs: 4 and 7, respectively (see FIGS. 7C and 7F), such that N-terminal HIS tagged carboxylate reductases could be produced. Each of the modified genes was cloned into a pET Duet expression vector along with a sfp gene encoding a HIS-tagged phosphopantetheine transferase from Bacillus subtilis, both under the T7 promoter. Each expression vector was transformed into a BL21[DE3] E. coli host and the resulting recombinant E. coli strains were cultivated at 37° C. in a 250 mL shake flask culture containing 50 mL LB media and antibiotic selection pressure, with shaking at 230 rpm. Each culture was induced overnight at 37° C. using an auto-induction media.
The pellet from each induced shake flask culture was harvested via centrifugation. Each pellet was resuspended and lysed via sonication, and the cell debris was separated from the supernatant via centrifugation. […]
Enzyme activity assays (i.e., from pimelate to pimelate semialdehyde) were performed in triplicate in a buffer composed of a final concentration of 50 mM HEPES buffer (pH=7.5), 2 mM pimelate, 10 mM MgCl2, 1 mM ATP and 1 mM NADPH. […] The consumption of NADPH was monitored by absorbance at 340 nm.

[2] = Thioesterase enzyme activity assay, pimeloyl-CoA to pimelate (release of Coenzyme A, Ellman's reagent, absorbance at 412 nm); details: 667 μM pimeloyl-CoA, 0.8 μM enzyme, pH=7.4, 37° C., 20 min; compared to the empty vector control; FIG. 8
Experimental: A sequence encoding an N-terminal His tag was added to the tesB gene from Escherichia coli that encodes a thioesterase (SEQ ID NO 1, see FIG. 7A), such that an N-terminal HIS tagged thioesterase could be produced. The modified tesB gene was cloned into a pET15b expression vector under control of the T7 promoter. The expression vector was transformed into a BL21[DE3] E. coli host. The resulting recombinant E. coli strain was cultivated at 37° C. in a 500 mL shake flask culture containing 50 mL Luria Broth (LB) media and antibiotic selection pressure, with shaking at 230 rpm. The culture was induced overnight at 17° C. using 0.5 mM IPTG.
The pellet from the induced shake flask culture was harvested via centrifugation. The pellet was resuspended and lysed in Y-Per™ solution (ThermoScientific, Rockford, Ill.). The cell debris was separated from the supernatant via centrifugation. […]
The enzyme activity assay was performed in triplicate in a buffer composed of 50 mM phosphate buffer (pH=7.4), 0.1 mM Ellman's reagent, and 667 μM of pimeloyl-CoA (as substrate). […] The release of Coenzyme A was monitored by absorbance at 412 nm. The absorbance associated with the substrate only control, which contained boiled enzyme, was subtracted from the active enzyme assay absorbance and compared to the empty vector control.

[3] = Carboxylate reductase activity assay, N7-acetyl-7-aminoheptanoate to N7-acetyl-7-aminoheptanal (NADPH consumption, absorbance at 340 nm); details: purified enzyme enhanced by the gene product of sfp, 2 mM N7-acetyl-7-aminoheptanoate, 1 mM ATP, 1 mM NADPH, pH=7.5, room temperature, 20 min; against the empty vector control; FIG. 12
Experimental: The activity of each of the N-terminal His-tagged carboxylate reductases of SEQ ID NOs: 3, 6, and 7 (see Examples 4, and FIGS. 7B, 7E, and 7F) for converting N7-acetyl-7-aminoheptanoate to N7-acetyl-7-aminoheptanal was assayed in triplicate in a buffer composed of a final concentration of 50 mM HEPES buffer (pH=7.5), 2 mM N7-acetyl-7-aminoheptanoate, 10 mM MgCl2, 1 mM ATP, and 1 mM NADPH. The assays were initiated by adding purified carboxylate reductase and phosphopantetheine transferase or the empty vector control to the assay buffer containing the N7-acetyl-7-aminoheptanoate then incubated at room temperature for 20 min. The consumption of NADPH was monitored by absorbance at 340 nm.

B1: SEQ ID NO 4: Segniliparus rugosus carboxylate reductase, Genbank Accession No. EFV11917.1 (protein, listed as Segniliparus rugosus)
chain: MGDGEERAKRFFQRIGELSATDPQFAAAAPDPAVVEAVSDPSLSFTRYLDTLMRGYAERPALAHRVGAGYETISYGELWARVGAIAAAWQADGLAPGDFVATVGFTSPDYVAVDLAAARSGLVSVPLQAGASLAQLVGILEETEPKVLAASASSLEGAVACALAAPSVQRLVVFDLRGPDASESAADERRGALADAEEQLARAGRAVVVETLADLAARGEALPEAPLFEPAEGEDPLALLIYTSGSTGAPKGAMYSQRLVSQLWGRTPVVPGMPNISLHYMPLSHSYGRAVLAGALSAGGTAHFTANSDLSTLFEDIALARPTFLALVPRVCEMLFQESQRGQDVAELRERVLGGRLLVAVCGSAPLSPEMRAFMEEVLGFPLLDGYGSTEALGVMRNGIIQRPPVIDYKLVDVPELGYRTTDKPYPRGELCIRSTSLISGYYKRPEITAEVFDAQGYYKTGDVMAEIAPDHLVYVDRSKNVLKLSQGEFVAVAKLEAAYGTSPYVKQIFVYGNSERSFLLAVVVPNAEVLGARDQEEAKPLIAASLQKIAKEAGLQSYEVPRDFLIETEPFTTQNGLLSEVGKLLRPKLKARYGEALEARYDEIAHGQADELRALRDGAGQRPVVETVVRAAVAISGSEGAEVGPEANFADLGGDSLSALSLANLLHDVFEVEVPVRIIIGPTASLAGIAKHIEAERAGASAPTAASVHGAGATRIRASELTLEKFLPEDLLAAAKGLPAADQVRTVLLTGANGWLGRFLALEQLERLARSGQDGGKLICLVRGKDAAAARRRIEETLGTDPALAARFAELAEGRLEVVPGDVGEPKFGLDDAAWDRLAEEVDVIVHPAALVNHVLPYHQLFGPNVVGTAEIIRLAITAKRKPVTYLSTVAVAAGVEPSSFEEDGDIRAVVPERPLGDGYANGYGNSKWAGEVLLREAHELVGLPVAVFRSDMILAHTRYTGQLNVPDQFTRLVLSLLATGIAPKSFYQQGAAGERQRAHYDGIPVDFTAEAITTLGAEPSWFDGGAGFRSFDVFNPHHDGVGLDEFVDWLIEAGHPISRIDDHKEWFARFETAVRGLPEAQRQHSLLPLLRAYSFPHPPVDGSVYPTGKFQGAVKAAQVGSDHDVPHLGKALIVKYADDLKALGLL
carboxylate reductase activity for converting pimelate to pimelate semialdehyde [1]: accepted pimelate as substrate

B2: tesB: Escherichia coli thioesterase encoded by tesB, GenBank Accession No. AAA24665.1 (protein, listed as Escherichia coli)
chain: MSQALKNLLTLLNLEKIEEGLFRGQSEDLGLRQVFGGQVVGQALYAAKETVPEERLVHSFHSYFLRPGDSKKPIIYDVETLRDGNSFSARRVAAIQNGKPIFYMTASFQAPEAGFEHQKTMPSAPAPDGLPSETQIAQSLAHLLPPVLKDKFICDRPLEVRPVEFHNPLKGHVAEPHRQVWIRANGSVPDDLRVHQYLLGYASDLNFLPVALQPHGIGFLEPGIQIATIDHSMWFHRPFNLNEWLLYSVESTSASSARGFVRGEFYTQDGVLVASTVQEGVMRNHN
thioesterase activity for converting pimeloyl-CoA to pimelate [2]: accepted pimeloyl-CoA as substrate

B3: SEQ ID NO 6: Mycobacterium massiliense carboxylate reductase, Genbank Accession No. EIV11143.1 (protein)
chain: MTNETNPQQEQLSRRIESLRESDPQFRAAQPDPAVAEQVLRPGLHLSEAIAALMTGYAERPALGERARELVIDQDGRTTLRLLPRFDTTTYGELWSRTTSVAAAWHHDATHPVKAGDLVATLGFTSIDYTVLDLAIMILGGVAVPLQTSAPASQWTTILAEAEPNTLAVSIELIGAAMESVRATPSIKQVVVFDYTPEVDDQREAFEAASTQLAGTGIALETLDAVIARGAALPAAPLYAPSAGDDPLALLIYTSGSTGAPKGAMHSENIVRRWWIREDVMAGTENLPMIGLNFMPMSHIMGRGTLTSTLSTGGTGYFAASSDMSTLFEDMELIRPTALALVPRVCDMVFQRFQTEVDRRLASGDTASAEAVAAEVKADIRDNLFGGRVSAVMVGSAPLSEELGEFIESCFELNLTDGYGSTEAGMVFRDGIVQRPPVIDYKLVDVPELGYFSTDKPHPRGELLLKTDGMFLGYYKRPEVTASVFDADGFYMTGDIVAELAHDNIEIIDRRNNVLKLSQGEFVAVATLEAEYANSPVVHQIYVYGSSERSYLLAVVVPTPEAVAAAKGDAAALKTTIADSLQDIAKEIQLQSYEVPRDFIIEPQPFTQGNGLLTGIAKLARPNLKAHYGPRLEQMYAEIAEQQAAELRALHGVDPDKPALETVLKAAQALLGVSSAELAADAHFTDLGGDSLSALSFSDLLRDIFAVEVPVGVIVSAANDLGGVAKFVDEQRHSGGTRPTAETVHGAGHTEIRAADLTLDKFIDEATLHAAPSLPKAAGIPHTVLLTGSNGYLGHYLALEWLERLDKTDGKLIVIVRGKNAEAAYGRLEEAFDTGDTELLAHFRSLADKHLEVLAGDIGDPNLGLDADTWQRLADTVDVIVHPAALVNHVLPYNQLFGPNVVGTAEIIKLAITTKIKPVTYLSTVAVAAYVDPTTFDEESDIRLISAVRPIDDGYANGYGNAKWAGEVLLREAHDLCGLPVAVFRSDMILAHSRYTGQLNVPDQFTRLILSLIATGIAPGSFYQAQTTGERPLAHYDGLPGDFTAEAITTLGTQVPEGSEGFVTYDCVNPHADGISLDNFVDWLIEAGYPIARIDNYTEWFTRFDTAIRGLSEKQKQHSLLPLLHAFEQPSAAENHGVVPAKRFQHAVQAAGIGPVGQDGTTDIPHLSRRLIVKYAKDLEQLGLL
modifications: Mycobacterium massiliense
carboxylate reductase activity for converting N7-acetyl-7-aminoheptanoate to N7-acetyl-7-aminoheptanal [3]: accepted N7-acetyl-7-aminoheptanoate as substrate
